How the values were obtained:
[1] = biological target: T1, CPXV14-His (His-tagged recombinant cowpox virus Brighton Red CPXV14) (cowpox virus (Brighton Red strain)); experiment: BLI
[2] = biological target: T1, CPXV14-His (His-tagged recombinant …); experiment: BLI; remark: listed apart in the source

B1: soluble recombinant murine FcγRIIB (mCD32B) ectodomain (receptor)
chain: THDLPKAVVKLEPPWIQVLKEDTVTLTCEGTHNPGNSSTQWFHNGRSIRSQVQASYTFKATVNDSGEYRCQMEQTRLSDPVDLGVISDWLLLQTPQLVFLEGETITLRCHSWRNKLLNRISFFHNEKSVRYHHYSSNFSIPKANHSHSGDYYCKGSLGRTLHQSKPVTITVQGPKSSRSLP
**Q.** Which results are given for B1?
**A.** Kd [1]: 2.94 nM; koff [2]: 0.00198 s⁻¹
